In patent publication US20240117018A1:

Experiments:
Assay in all cases: cell-based or functional assay
[1] = target: HIV-1 Env pseudovirus P1981_C5_3 (HIV-1)
[2] = target: HIV-1 Env of pseudovirus 3415.v1.c1 (HIV-1)
[3] = target: HIV-1 Env of pseudovirus HIV-001428-2.42 (HIV-1)
[4] = target: HIV-1 Env pseudovirus X2088_c9 (HIV-1)
[5] = target: HIV-1 Env of pseudovirus REJO4541.67 (HIV-1)
[6] = target: HIV-1 Env pseudovirus 6952.v1.c20 (HIV-1)
[7] = target: HIV-1 Env pseudovirus 6480.v4.c25 (HIV-1)
[8] = target: HIV-1 Env of pseudovirus Ce1086_B2 (HIV-1)
[9] = target: HIV-1 Env pseudovirus A07412M1.vrc12 (HIV-1)
[10] = target: HIV-1 Env pseudovirus 620345.c01 (HIV-1)
[11] = target: HIV-1 Env of pseudovirus CNE20 (HIV-1)
[12] = target: HIV-1 Env pseudovirus C1080.c03 (HIV-1)
[13] = target: HIV-1 Env pseudovirus R1166.c01 (HIV-1)
[14] = target: HIV-1 Env of pseudovirus CNE52 (HIV-1)
[15] = target: Env of HIV-1 pseudovirus CNE30 (HIV-1)
[16] = target: Env of HIV-1 pseudovirus QH0692.42 (HIV-1)
[17] = target: Env of HIV-1 pseudovirus TRO.11 (HIV-1)
[18] = target: Env of HIV-1 pseudovirus Q23.17 (HIV-1)
[19] = target: Env of HIV-1 pseudovirus TRJO4551.58 (HIV-1)
[20] = target: Env of HIV-1 pseudovirus ZM249M.PL1 (HIV-1)
[21] = target: Env of HIV-1 pseudovirus Du156.12 (HIV-1)
[22] = target: Env of HIV-1 pseudovirus 7030102001E5(Rev-) (HIV-1)
[23] = target: Env of HIV-1 pseudovirus 6240_08_TA5_4622 (HIV-1)
[24] = target: Env of HIV-1 pseudovirus 1394C9G1(Rev-) (HIV-1)
[25] = target: Env of HIV-1 pseudovirus CNE17 (HIV-1)
[26] = target: Env of HIV-1 pseudovirus 263-8 (HIV-1)
[27] = target: Env of HIV-1 pseudovirus CNE52 (HIV-1)
[28] = target: Env of HIV-1 pseudovirus 1054_07_TC4_1499 (HIV-1)
[29] = target: Env of HIV-1 pseudovirus HIV-001428-2.42 (HIV-1)
[30] = target: Env of HIV-1 pseudovirus T257-31 (HIV-1)
[31] = target: Env of HIV-1 pseudovirus ZM247v1(Rev-) (HIV-1)
[32] = target: Env of HIV-1 pseudovirus WEAU_d15_410_787 (HIV-1)

## 8ANC195 (antibody)
[1]
  IC50 (Titer in TZM.bl cells): 0.14 µg/mL
  IC80 (Titer in TZM.bl cells): 1.15 µg/mL
[2]
  IC50: 17.7 µg/mL
  IC80: 17.7 µg/mL
[3]
  IC50: > 50 µg/mL
  IC80: > 50 µg/mL
[4]
  IC50 (Titer in TZM.bl cells): > 50 µg/mL
  IC80 (Titer in TZM.bl cells): > 50 µg/mL
[5]
  IC50: 0.08 µg/mL
  IC80: 0.68 µg/mL
[6]
  IC50 (Titer in TZM.bl cells): 1.38 µg/mL
  IC80 (Titer in TZM.bl cells): 7.22 µg/mL
[7]
  IC50 (Titer in TZM.bl cells): 0.16 µg/mL
  IC80 (Titer in TZM.bl cells): 1.13 µg/mL
[8]
  IC50: 4.42 µg/mL
  IC80: 19.1 µg/mL
[9]
  IC50 (Titer in TZM.bl cells): 2.25 µg/mL
  IC80 (Titer in TZM.bl cells): 7.49 µg/mL
[10]
  IC50 (Titer in TZM.bl cells): > 50 µg/mL
  IC80 (Titer in TZM.bl cells): > 50 µg/mL
[11]
  IC50: 0.5 µg/mL
  IC80: 3.19 µg/mL
[12]
  IC50 (Titer in TZM.bl cells): 0.17 µg/mL
  IC80 (Titer in TZM.bl cells): 1.12 µg/mL
[13]
  IC50 (Titer in TZM.bl cells): 4.83 µg/mL
  IC80 (Titer in TZM.bl cells): 4.83 µg/mL
[14]
  IC50: 5.59 µg/mL
  IC80: 43.1 µg/mL

## 10E8 (antibody)
[15]
  IC50: 1.56 µg/mL
  IC80: 9.84 µg/mL
[16]
  IC50: 0.442 µg/mL
  IC80: 4.05 µg/mL
[17]
  IC50: 0.034 µg/mL
  IC80: 0.25 µg/mL
[18]
  IC50: 1.64 µg/mL
  IC80: 7.04 µg/mL
[19]
  IC50: 0.475 µg/mL
  IC80: 4.78 µg/mL
[20]
  IC50: 1.51 µg/mL
  IC80: 6.29 µg/mL
[21]
  IC50: 0.034 µg/mL
  IC80: 0.144 µg/mL
[22]
  IC50: 6.71 µg/mL
  IC80: > 10 µg/mL
[23]
  IC50: 0.756 µg/mL
  IC80: 5.59 µg/mL
[24]
  IC50: 0.963 µg/mL
  IC80: 5.33 µg/mL
[25]
  IC50: 1.11 µg/mL
  IC80: 5.25 µg/mL
[26]
  IC50: 0.196 µg/mL
  IC80: 1.73 µg/mL
[27]
  IC50: 0.304 µg/mL
  IC80: 3.06 µg/mL
[28]
  IC50: 0.046 µg/mL
  IC80: 0.305 µg/mL
[29]
  IC50: 0.809 µg/mL
  IC80: 7.3 µg/mL
[30]
  IC50: 0.88 µg/mL
  IC80: 5.78 µg/mL
[31]
  IC50: 0.506 µg/mL
  IC80: 6.75 µg/mL
[32]
  IC50: > 10 µg/mL
  IC80: > 10 µg/mL

## 10-1074 (antibody)
[15]
  IC50: 0.363 µg/mL
  IC80: 1.2 µg/mL
[16]
  IC50: 0.191 µg/mL
  IC80: 0.929 µg/mL
[17]
  IC50: 0.008 µg/mL
  IC80: 0.057 µg/mL
[18]
  IC50: 0.006 µg/mL
  IC80: 0.021 µg/mL
[19]
  IC50: 0.17 µg/mL
  IC80: 0.634 µg/mL
[20]
  IC50: > 50 µg/mL
  IC80: > 50 µg/mL
[21]
  IC50: 0.015 µg/mL
  IC80: 0.076 µg/mL
[22]
  IC50: 0.006 µg/mL
  IC80: 0.021 µg/mL
[23]
  IC50: 0.068 µg/mL
  IC80: 0.306 µg/mL
[24]
  IC50: 0.05 µg/mL
  IC80: 0.191 µg/mL
[25]
  IC50: 2.69 µg/mL
  IC80: 13.3 µg/mL
[26]
  IC50: 0.666 µg/mL
  IC80: 6.53 µg/mL
[27]
  IC50: 1.23 µg/mL
  IC80: 13.1 µg/mL
[28]
  IC50: 0.129 µg/mL
  IC80: 0.563 µg/mL
[29]
  IC50: 0.044 µg/mL
  IC80: 0.261 µg/mL
[30]
  IC50: > 50 µg/mL
  IC80: > 50 µg/mL
[31]
  IC50: 0.042 µg/mL
  IC80: 0.186 µg/mL
[32]
  IC50: 0.104 µg/mL
  IC80: 0.375 µg/mL
